Assay results reported in publication PMC12365907, “https://orcid.org/0000-0002-7156-8846 Tungsirisurp Sireethorn Conceptualization Methodology Formal analysis Investigation Data curation Writing – original draft Writing – review & editing”.

Legend:
[1] = biological target: T1, SARS-CoV-2 spike receptor binding domain (RBD) (SARS-CoV-2, UniProt P0DTC2 319-541); assay: ELONA; conditions: protein: commercial; label: 5'-biotin
[2] = biological target: T1, SARS-CoV-2 spike receptor binding …; assay: fluorescent strand displacement from beads; conditions: protein: commercial

| Binder | Kd [1] | binding result [2] |
| --- | --- | --- |
| RBD-1 aptamer (ssDNA) DNA: CAGCACCGACCTTGTGCTTTGGGAGTGCTGGTCCAAGGGCGTTAATGGACA | 4.58 ± 1.15 nM |  |
| RBD-1/MM-T9 antisense duplex (mixed) DNA 1: CAGCACCGACCTTGTGCTTTGGGAGTGCTGGTCCAAGGGCGTTAATGGACA DNA 2: GTCGGTGCAG |  | binds |
| RBD-1/CM antisense duplex (mixed) DNA 1: CAGCACCGACCTTGTGCTTTGGGAGTGCTGGTCCAAGGGCGTTAATGGACA DNA 2: GTCGGTGCTG |  | binds |
| RBD-1/MM-T2 antisense duplex (mixed) DNA 1: CAGCACCGACCTTGTGCTTTGGGAGTGCTGGTCCAAGGGCGTTAATGGACA DNA 2: GACGGTGCTG |  | binds |
